Measured values taken from patent US9926369B2, “Methods for treating hepatocellular cancer by administering an anti-Ang-2 antibody” (Regeneron Pharmaceuticals, Inc., priority 2009, dated 2018).

Key:
[1] = target: T1, hAng-2 WT binding to Tie-2 (Homo sapiens, UniProt O15123); assay: ELISA blocking of full-length hAng-2 WT binding to hTie-2-mFc; assay type: biochemical
T1 construct: Full-length human Ang-2 or Ang-1 protein conjugated to 6× histidine tag (R&D Systems, Minneapolis, Minn.); purchased R&D Systems
T1 sequence (O15123 19-496): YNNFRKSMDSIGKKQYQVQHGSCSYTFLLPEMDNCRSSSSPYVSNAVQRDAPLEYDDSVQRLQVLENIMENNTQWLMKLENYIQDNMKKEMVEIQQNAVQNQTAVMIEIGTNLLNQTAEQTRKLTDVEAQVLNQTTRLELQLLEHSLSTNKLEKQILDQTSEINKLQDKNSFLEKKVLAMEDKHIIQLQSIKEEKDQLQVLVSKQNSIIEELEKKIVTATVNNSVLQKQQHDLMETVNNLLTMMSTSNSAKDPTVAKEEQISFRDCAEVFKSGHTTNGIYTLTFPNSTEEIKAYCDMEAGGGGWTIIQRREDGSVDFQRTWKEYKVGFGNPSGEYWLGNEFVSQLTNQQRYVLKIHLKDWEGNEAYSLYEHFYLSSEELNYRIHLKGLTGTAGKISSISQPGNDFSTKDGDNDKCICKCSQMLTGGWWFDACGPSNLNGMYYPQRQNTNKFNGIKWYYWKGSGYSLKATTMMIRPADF
Procedure: The ELISA experiments shown in this Example were conducted in a similar manner to the experiments of Example 5. Briefly, hTie-2-mFc (a chimeric construct consisting of human Tie-2 conjugated to mouse IgG; SEQ ID NO:525) was coated onto 96-well plates at a concentration of 2 μg/ml and incubated overnight followed by washing four times in wash buffer (PBS with 0.05% Tween-20). The plate was then blocked with PBS (Irvine Scientific, Santa Ana, Calif.) containing 0.5% BSA (Sigma-Aldrich Corp., St. Louis, Mo.) for one hour at room temperature. In a separate plate, purified anti-Ang-2 antibodies and control constructs, at a starting concentration of 300 nM, were serially diluted by a factor of three across the plate. Full-length human Ang-2 or Ang-1 protein conjugated to 6× histidine tag (R&D Systems, Minneapolis, Minn.) were added to a final concentration of 0.6 nM and incubated for one hour at room temperature. The antibody/antigen mixture was then added to the plate containing hTie-2-mFc and incubated for one hour at room temperature. Detection of Ang-2-His or Ang-1-His bound to hTie-2-mFc protein was determined with Horse-Radish Peroxidase (HRP) conjugated to a-Penta-His antibody (Qiagen, Valencia, Calif.) and developed by standard colorimetric response using tetramethylbenzidine (TMB) substrate (BD Biosciences, San Jose, Calif.). Absorbance was read at OD450 for 0.1 sec. […]

[2] = target: Dimeric Human Ang-2FD-mFc (Homo sapiens, UniProt O15123); assay: Cross-species SPR binding at 25° C. or 37° C., human Ang-2FD-mFc
Procedure: Additional binding experiments were conducted using selected anti-Ang-2 antibodies at two different temperatures to further assess cross-species affinity. Each selected antibody or control construct was captured at a flow rate of 40 μL/min for 1 minute on a goat anti-human kappa polyclonal antibody surface created through direct chemical coupling to a BIACORE™ chip to form a captured antibody surface. Human, monkey and mouse Ang-2FD-Fc at a concentration of 25 nM or 0.78 nM was injected over the captured antibody surface at a flowrate of 60 μL/min for 3 minutes, and antigen-antibody dissociation was monitored in real time for 20 minutes at either 25° C. or 37° C.

[3] = target: T2, Human Ang-2FD-hFc binding to hTie-2-mFc (Homo sapiens, UniProt O15123); assay: ELISA blocking of human Ang-2FD-hFc binding to hTie-2-mFc; assay type: biochemical; settings: 16.67 nM antibody; 2 nM Ang-2FD-hFc
T2 sequence (O15123 282-496): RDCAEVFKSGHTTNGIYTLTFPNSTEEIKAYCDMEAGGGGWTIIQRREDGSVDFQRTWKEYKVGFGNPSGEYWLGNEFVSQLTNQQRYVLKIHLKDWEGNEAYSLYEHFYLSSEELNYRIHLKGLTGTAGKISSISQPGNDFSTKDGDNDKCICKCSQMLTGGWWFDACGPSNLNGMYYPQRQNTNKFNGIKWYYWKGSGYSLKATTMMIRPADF
Procedure: Tie-2 is a natural receptor for Ang-2. Anti-Ang-2 antibodies were tested for their ability to block Ang-2 binding to human Tie-2 (hTie-2). hTie-2-mFc (a chimeric construct consisting of human Tie-2 conjugated to mouse IgG; SEQ ID NO:525) was coated onto 96-well plates at a concentration of 2 μg/ml and incubated overnight followed by washing four times in wash buffer (PBS with 0.05% Tween-20). The plate was then blocked with PBS (Irvine Scientific, Santa Ana, Calif.) containing 0.5% BSA (Sigma-Aldrich Corp., St. Louis, Mo.) for one hour at room temperature. In a separate plate, purified anti-Ang-2 antibodies, at a starting concentration of 50 nM, were serially diluted by a factor of three across the plate. Human, mouse or monkey Ang-2FD protein conjugated to human IgG (Ang-2FD-hFc) were added to final concentrations of 2 nM, 8 nM, or 2 nM respectively and incubated for one hour at room temperature. The antibody/Ang-2FD-Fc mixture was then added to the plate containing hTie-2-mFc and incubated for one hour at room temperature. Detection of Ang-2FD-hFc bound to hTie-2-mFc protein was determined with Horse-Radish Peroxidase (HRP) conjugated to a-human IgG antibody (Jackson Immuno Research Lab, West Grove, Pa.) and developed by standard colorimetric response using tetramethylbenzidine (TMB) substrate (BD Biosciences, San Jose, Calif.). Absorbance was read at OD450 for 0.1 sec.

Dimeric Human Ang-2FD-mFc, sequence (O15123 with tags, fused parts or gaps): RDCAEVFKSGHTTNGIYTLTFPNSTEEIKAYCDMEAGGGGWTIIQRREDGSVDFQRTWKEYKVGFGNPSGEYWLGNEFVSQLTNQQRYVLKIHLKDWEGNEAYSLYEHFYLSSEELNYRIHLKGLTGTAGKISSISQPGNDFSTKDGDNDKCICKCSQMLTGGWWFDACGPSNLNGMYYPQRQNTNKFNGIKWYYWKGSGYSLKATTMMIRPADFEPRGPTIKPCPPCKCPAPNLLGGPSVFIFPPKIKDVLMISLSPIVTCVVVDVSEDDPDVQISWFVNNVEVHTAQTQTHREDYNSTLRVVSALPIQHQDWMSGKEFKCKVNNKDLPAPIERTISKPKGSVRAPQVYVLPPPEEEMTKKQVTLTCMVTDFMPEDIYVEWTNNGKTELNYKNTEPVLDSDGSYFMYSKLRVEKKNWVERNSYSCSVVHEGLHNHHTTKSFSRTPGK

H1H685P: human anti-Ang-2 antibody, HCVR/LCVR SEQ ID NOs 18/20; also referred to as mAb1 [Antibody H1H685P]
IC50 ([1]; 0.6 nM hAng-2-His, read-out: (1) Blocking hAng-2 WT to Tie-2 IC50): 0.129 nM
(3) Fold Difference in hAng-1 Blocking IC50 Compared to h-Ang-2 Blocking IC50 ([1]; hAng-1 blocking IC50 divided by hAng-2 blocking IC50): >2318
Kd ([2]; 25° C.): 0.0117 nM
Kd ([2]; 37° C.): 0.027 nM
Percent Blocking of Ang-2FD Binding to Tie-2, Human Ang-2FD-hFc [3]: 93.8%
